Results taken from US20240034757A1 (OXFORD UNIVERSITY INNOVATION, published 2024).
Residue numbers refer to the chain shown, from its start. Read-outs that look alike come from different tables or passages of the source.

T1: CXCL14_HUMAN (human, UniProt O95715 35-111)
T1 sequence: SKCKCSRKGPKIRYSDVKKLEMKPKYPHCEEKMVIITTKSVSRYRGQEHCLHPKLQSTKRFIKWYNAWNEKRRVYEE

T2: CXCL7_HUMAN (human, UniProt P02775 59-128)
T2 sequence: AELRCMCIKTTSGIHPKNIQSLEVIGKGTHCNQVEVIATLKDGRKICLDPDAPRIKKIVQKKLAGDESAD

T3: CXCL8_HUMAN (human, UniProt P10145 28-99)
T3 sequence: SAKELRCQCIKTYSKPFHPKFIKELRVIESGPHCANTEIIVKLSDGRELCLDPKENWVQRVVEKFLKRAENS

T4: CXCL4_HUMAN (human, UniProt P02776 32-101)
T4 sequence: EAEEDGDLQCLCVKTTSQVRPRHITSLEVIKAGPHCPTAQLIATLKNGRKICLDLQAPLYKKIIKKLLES

T5: CXCL5_HUMAN (human, UniProt P42830 41-114)
T5 sequence: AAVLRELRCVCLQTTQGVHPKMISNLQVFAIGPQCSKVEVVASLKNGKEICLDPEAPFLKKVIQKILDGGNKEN

T6: CXCL11_HUMAN (human, UniProt O14625 22-94)
T6 sequence: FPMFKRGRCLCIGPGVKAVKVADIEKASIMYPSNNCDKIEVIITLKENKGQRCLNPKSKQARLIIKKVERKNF

T7: CXCL10_HUMAN (human, UniProt P02778 22-98)
T7 sequence: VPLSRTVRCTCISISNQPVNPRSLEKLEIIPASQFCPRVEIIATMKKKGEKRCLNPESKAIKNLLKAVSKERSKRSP

T8: CXCL13_HUMAN (human, UniProt O43927 23-109)
T8 sequence: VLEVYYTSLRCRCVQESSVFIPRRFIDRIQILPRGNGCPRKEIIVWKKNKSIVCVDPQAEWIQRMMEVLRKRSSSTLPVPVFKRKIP

T9: CXCL6_HUMAN (human, UniProt P80162 38-114)
T9 sequence: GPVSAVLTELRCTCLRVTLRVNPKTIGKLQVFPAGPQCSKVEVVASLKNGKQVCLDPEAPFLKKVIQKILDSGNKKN

T10: P467_RHIPU (Rhipicephalus pulchellus, UniProt L7M8Z8 22-127)
T10 sequence: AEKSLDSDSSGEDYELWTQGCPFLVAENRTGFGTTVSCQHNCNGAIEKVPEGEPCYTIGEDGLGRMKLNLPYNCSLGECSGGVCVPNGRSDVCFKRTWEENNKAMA

T11: P546_AMBCA (Amblyomma cajennense, UniProt A0A023FBW7 22-118)
T11 sequence: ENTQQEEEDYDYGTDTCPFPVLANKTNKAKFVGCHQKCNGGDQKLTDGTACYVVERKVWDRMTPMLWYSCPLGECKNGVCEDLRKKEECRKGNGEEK

T12: P1180_AMBTR (Amblyomma triste, UniProt A0A023G6B6 26-116)
T12 sequence: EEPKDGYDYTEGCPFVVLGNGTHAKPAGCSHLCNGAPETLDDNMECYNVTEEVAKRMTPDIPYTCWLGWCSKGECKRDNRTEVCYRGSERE

T13: P1181_AMBMA (Amblyomma maculatum, UniProt G3MIX6 26-115)
T13 sequence: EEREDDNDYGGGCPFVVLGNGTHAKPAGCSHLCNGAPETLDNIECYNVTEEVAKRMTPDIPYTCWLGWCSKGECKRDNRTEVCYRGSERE

T14: P1182_AMBMA (Amblyomma maculatum, UniProt G3MJ83 27-115)
T14 sequence: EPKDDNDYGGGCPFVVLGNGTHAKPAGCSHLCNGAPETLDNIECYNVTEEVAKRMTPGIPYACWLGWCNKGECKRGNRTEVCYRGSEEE

T15: P1243_AMBAM (Amblyomma americanum, UniProt A0A0C9S461 26-123)
T15 sequence: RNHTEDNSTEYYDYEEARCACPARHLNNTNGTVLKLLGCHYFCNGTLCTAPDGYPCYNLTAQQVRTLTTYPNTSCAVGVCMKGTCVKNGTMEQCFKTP

T16: P672_RHIPU (Rhipicephalus pulchellus, UniProt L7MC74 22-125)
T16 sequence: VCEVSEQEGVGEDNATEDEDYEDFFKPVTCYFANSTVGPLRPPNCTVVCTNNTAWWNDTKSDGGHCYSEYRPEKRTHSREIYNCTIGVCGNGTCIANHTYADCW

T17: P974_AMBCA (Amblyomma cajennense, UniProt A0A023FDY8 22-118)
T17 sequence: T11 sequence with E8Q, S69E, E88D

T18: P991_AMBCA (Amblyomma cajennense, UniProt A0A023FFD0 29-136)
T18 sequence: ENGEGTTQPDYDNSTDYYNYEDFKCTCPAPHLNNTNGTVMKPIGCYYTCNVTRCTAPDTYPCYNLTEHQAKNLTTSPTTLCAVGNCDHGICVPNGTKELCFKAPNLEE

T19: P1134_IXORI (Ixodes ricinus, UniProt A0A0K8RAI0 32-135)
T19 sequence: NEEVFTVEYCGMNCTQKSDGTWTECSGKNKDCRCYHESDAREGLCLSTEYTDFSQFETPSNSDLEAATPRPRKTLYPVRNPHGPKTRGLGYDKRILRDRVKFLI

T20: P1183_AMBTR (Amblyomma triste, UniProt A0A023G9N9 26-115)
T20 sequence: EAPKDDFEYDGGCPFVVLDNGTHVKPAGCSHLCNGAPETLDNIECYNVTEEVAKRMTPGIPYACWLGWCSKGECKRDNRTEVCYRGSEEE

T21: P985_AMBPA (Amblyomma parvum, UniProt A0A023FT45 25-132)
T21 sequence: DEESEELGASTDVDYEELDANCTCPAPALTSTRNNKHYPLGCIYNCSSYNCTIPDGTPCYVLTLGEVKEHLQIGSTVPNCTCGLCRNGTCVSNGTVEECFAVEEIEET

T22: CCL5_HUMAN (human, UniProt P13501 24-91)
T22 sequence: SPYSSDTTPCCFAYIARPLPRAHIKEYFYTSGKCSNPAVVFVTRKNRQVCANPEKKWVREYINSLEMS

B1: P1090_IXORI (other)
chain: GSKELSGPESSENSIEAAFCDTNCTEGTDGVWSGCSAGCFCVHVGNSTVGRCMTFNGVDGG
B2: P1170_IXORI (other)
chain: LGDEDQLFSVEYCGTNCTQQDDGKWTPCSGKNGKCKCYHEDGKRYGLCLYTEYTDFSQYPNPEGSEIENTRPRP
B3: P983_AMBCA (other)
chain: EDTGTEDDFDYGNTGCPFPVLGNYKSNMTKPVGCKNKCGSGYEVLNDTTPCYVIDQKVFNNMVPLRQYSKCPLGFCENGECKPNDQAEDCYKGREEQK
B4: CCL14_HUMAN (ligand)
chain: TESSSRGPYHPSECCFTYTTYKIPRQRIMDYYETNSQCSKPGIVFITKRGHSVCTNPSDKWVQDYIKDMKEN
B5: CCL23_HUMAN (ligand)
chain: RVTKDAETEFMMSKLPLENPVLLDRFHATSADCCISYTPRSIPCSLLESYFETNSECSKPGVIFLTKKGRRFCANPSDKQVQVCMRMLKLDTRIKTRKN
B6: CXCL9_HUMAN (ligand)
chain: TPVVRKGRCSCISTNQGTIHLQSLKDLKQFAPSPSCEKIEIIATLKNGVQTCLNPDSADVKELIKKWEKQVSQKKKQKNGKKHQKKKVLKVRKSQRSRQKKTT
B7: CCL13_HUMAN (ligand)
chain: not shown
B8: P1063_AMBTR (other)
chain: QSEVGKNVPGCGDTETLEAPPQEKPPYYEYKDEEGCTQKVLESWFQAGERSTGRGQKKRGHGRRPSRVLRTVDCRKNCTVGITALPDGHLCLVPRGDPFTRGGAIKYGCYLGDCASGHCQHRYETVSCRLPAPDTTAKPYYVTPEK
B9: CCL3L1_HUMAN (ligand)
chain: APLAADTPTACCFSYTSRQIPQNFIADYFETSSQCSKPSVIFLTKRGRQVCADPSEEWVQKYVSDLELSA

Columns and labels:
CXCL9_HUMAN = target: B6; test: BLI
CXCL12_HUMAN = CXCL12_HUMAN (human, UniProt P48061 22-89); test: BLI
Sequence of CXCL12_HUMAN (P48061 22-89 limits assumed): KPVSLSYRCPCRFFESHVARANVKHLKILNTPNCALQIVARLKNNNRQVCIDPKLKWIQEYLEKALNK

CXCL14_HUMAN = target: T1, CXCL14_HUMAN; test: BLI
CXCL7_HUMAN = target: T2, CXCL7_HUMAN; test: BLI [Cont.]
CXCL8_HUMAN [1] = target: T3, CXCL8_HUMAN; test: BLI [Cont.]
CXCL4_HUMAN = target: T4, CXCL4_HUMAN; test: BLI [Cont.]
CXCL5_HUMAN = target: T5, CXCL5_HUMAN; test: BLI [Cont.]
CXCL11_HUMAN = target: T6, CXCL11_HUMAN; test: yeast surface display FACS re-test
CXCL10_HUMAN = target: T7, CXCL10_HUMAN; test: BLI
CXCL13_HUMAN = target: T8, CXCL13_HUMAN; test: BLI
CXCL6_HUMAN = target: T9, CXCL6_HUMAN; test: BLI [Cont.]
CXCL8_HUMAN [2] = target: T3, CXCL8_HUMAN; test: yeast surface display FACS re-test
CCL2_HUMAN = CCL2_HUMAN (human, UniProt P13500 24-99); test: cell-based or functional assay
Sequence of CCL2_HUMAN (P13500 24-99 limits assumed): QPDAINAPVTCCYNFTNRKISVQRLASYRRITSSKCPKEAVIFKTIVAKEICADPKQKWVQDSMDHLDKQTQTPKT

P467_RHIPU = target: T10, P467_RHIPU; test: BLI
P546_AMBCA = target: T11, P546_AMBCA; test: BLI
P1180_AMBTR = target: T12, P1180_AMBTR; test: BLI
P1181_AMBMA = target: T13, P1181_AMBMA; test: BLI
P1182_AMBMA = target: T14, P1182_AMBMA; test: BLI
P1243_AMBAM [3] = target: T15, P1243_AMBAM; test: BLI
P672_RHIPU = target: T16, P672_RHIPU; test: BLI
P974_AMBCA = target: T17, P974_AMBCA; test: BLI
P983_AMBCA = target: B3; test: BLI
P991_AMBCA = target: T18, P991_AMBCA; test: BLI
BK1.1FITC = test: fluorescence polarisation, 50 nM peptide
P1134_IXORI = target: T19, P1134_IXORI; test: BLI
P1183_AMBTR = target: T20, P1183_AMBTR; test: BLI
P985_AMBPA = target: T21, P985_AMBPA; test: BLI
CCL5_HUMAN = target: T22, CCL5_HUMAN; test: yeast surface display FACS
P1243_AMBAM [4] = target: T15, P1243_AMBAM; test: BLI; remark: listed apart in the source

B1
binding result (CXCL9_HUMAN): no binding (tested: 300 nM) | binding result (CXCL12_HUMAN): no binding (tested: 300 nM) | binding result (CXCL14_HUMAN): no binding (tested: 300 nM) | binding result (CXCL7_HUMAN): no binding (tested: 300 nM) | binding result (CXCL8_HUMAN [1]): no binding (tested: 300 nM) | binding result (CXCL4_HUMAN): no binding (tested: 300 nM) | Kd (CXCL5_HUMAN): 43 nM | % cells over threshold fluorescence (CXCL11_HUMAN): 32%

B2
binding result (CXCL9_HUMAN): no binding (tested: 300 nM) | binding result (CXCL10_HUMAN): no binding (tested: 300 nM) | binding result (CXCL12_HUMAN): no binding (tested: 300 nM) | binding result (CXCL13_HUMAN): no binding (tested: 300 nM) | binding result (CXCL14_HUMAN): no binding (tested: 300 nM) | binding result (CXCL5_HUMAN): no binding (tested: 300 nM) | binding result (CXCL6_HUMAN): no binding (tested: 300 nM) | % cells over threshold fluorescence (CXCL8_HUMAN [2]): 81%

B3
IC50, THP1 cell migration (CCL2_HUMAN): 5.95 nM

B4
Kd (P467_RHIPU): 4.13 nM | Kd (P546_AMBCA): 28 nM | Kd (P1180_AMBTR): 4.4 nM | Kd (P1181_AMBMA): 47 nM | Kd (P1182_AMBMA): 50 nM | Kd (P1243_AMBAM [3]): 0.816 nM | Kd (P672_RHIPU): 5.5 nM | Kd (P974_AMBCA): 49.1 nM | Kd (P983_AMBCA): 81 nM | Kd (P991_AMBCA): 0.43 nM | binding result (BK1.1FITC): no binding (tested: 1 µM)

B5
binding result (BK1.1FITC): no binding (tested: 1 µM)

B6
binding result (P1134_IXORI): no binding (tested: 300 nM)

B7
Kd (P467_RHIPU): 2.56 nM | Kd (P546_AMBCA): 13 nM | Kd (P1180_AMBTR): 9 nM | Kd (P1181_AMBMA): 19 nM | Kd (P1182_AMBMA): 56 nM | Kd (P1183_AMBTR): 5.7 nM | Kd (P1243_AMBAM [3]): 0.788 nM | Kd (P974_AMBCA): 22.9 nM | Kd (P983_AMBCA): 17 nM | Kd (P985_AMBPA): 89 nM | Kd (P991_AMBCA): 0.419 nM | binding result (BK1.1FITC): no binding (tested: 1 µM)

B8
binding result (CCL5_HUMAN): binds

B9
Kd (P467_RHIPU): 0.524 nM | Kd (P546_AMBCA): 15 nM | Kd (P1180_AMBTR): 2.2 nM | Kd (P1181_AMBMA): 3.3 nM | Kd (P1182_AMBMA): 9.5 nM | Kd (P1183_AMBTR): 110 nM | Kd (P1243_AMBAM [3]): 5.05 nM | Kd (P672_RHIPU): 2.7 nM | Kd (P974_AMBCA): 13.1 nM | Kd (P983_AMBCA): 2.1 nM | Kd (P985_AMBPA): 7.5 nM | Kd (P991_AMBCA): 1.4 nM | Kd (P1243_AMBAM [4]): 5.04 nM | binding result (BK1.1FITC): no binding (tested: 1 µM)
